The target of the assay is T1, receptor-binding domain (RBD) of the spike protein of SARS-CoV-2 (SARS-CoV-2, UniProt P0DTC2).
T1 construct: also called re-engineered RBD
Put plainly: SEC. The following applies: both partners purified.

Consider one molecule from doi:10.1101/2021.01.27.428466 (bioRxiv, 2021).

B1: Sb16 (VHH)
VHH: QVQLVESGGGLVQAGGSLRLSCAASGFPVAYKTMWWYRQAPGKEREWVAAIESYGIKWTRYADSVKGRFTISRDNAKNTVYLQMNSLKPEDTAVYYCIVWVGAQYHGQGTQVTVSA
Consider B1, for which the binding result is given as “binds”.
